B1: NLV3 TCR beta chain (CDR3β only) (parent)
chain: ASSPTGGSPSPLH
partner: MLVPMVATV

Variants of: B1
Test: T-Switch: Jurkat TCRβ−/− cells expressing a CDR3 saturation-mutagenesis library, stained with two peptide-HLA-A*02:01 tetramers (original and novel peptide) plus anti-CD3, FACS-sorted into four gates, gDNA sequenced
Conditions: with HLA-A*02:01 with peptide … (NLV 3-1, the original bait), tetramers 1 µg/mL, 30 min on ice, DP and SW gates expanded about 10 days between rounds ('two to three rounds of selection' in the Methods), gate SP: higher = more of the variant in the gate that binds the original peptide and not the novel one = retained original binding. Fold enrichment of the CDR3 variant in one FACS gate of a two-tetra, unresolved parent, parent is a CDR3 fragment, scale: fold enrichment, numbering: sequential-on-construct, sequence …

Row | Variant | enrichment
1 | […] (CDR3 as printed); L12K derived by comparing it with the table's wild-type CDR3 ASSPTGGSPSPLH | 0
2 | […] (CDR3 as printed); L12M derived by comparing it with the table's wild-type CDR3 ASSPTGGSPSPLH | 2.27
3 | […] (CDR3 as printed); L12N derived by comparing it with the table's wild-type CDR3 ASSPTGGSPSPLH | 0
4 | […] (CDR3 as printed); L12P derived by comparing it with the table's wild-type CDR3 ASSPTGGSPSPLH | 0
5 | […] (CDR3 as printed); L12Q derived by comparing it with the table's wild-type CDR3 ASSPTGGSPSPLH | 0
6 | […] (CDR3 as printed); L12R derived by comparing it with the table's wild-type CDR3 ASSPTGGSPSPLH | 0
7 | […] (CDR3 as printed); L12S derived by comparing it with the table's wild-type CDR3 ASSPTGGSPSPLH | 1.12
8 | […] (CDR3 as printed); L12V derived by comparing it with the table's wild-type CDR3 ASSPTGGSPSPLH | 0
9 | […] (CDR3 as printed); L12Y derived by comparing it with the table's wild-type CDR3 ASSPTGGSPSPLH | 0
10 | […] (CDR3 as printed); P4A derived by comparing it with the table's wild-type CDR3 ASSPTGGSPSPLH | 1.98
11 | […] (CDR3 as printed); P4C derived by comparing it with the table's wild-type CDR3 ASSPTGGSPSPLH | 0
12 | […] (CDR3 as printed); P4D derived by comparing it with the table's wild-type CDR3 ASSPTGGSPSPLH | 0
13 | […] (CDR3 as printed); P4E derived by comparing it with the table's wild-type CDR3 ASSPTGGSPSPLH | 3.03
14 | […] (CDR3 as printed); P4F derived by comparing it with the table's wild-type CDR3 ASSPTGGSPSPLH | 1.88
15 | […] (CDR3 as printed); P4G derived by comparing it with the table's wild-type CDR3 ASSPTGGSPSPLH | 0
16 | […] (CDR3 as printed); P4H derived by comparing it with the table's wild-type CDR3 ASSPTGGSPSPLH | 0
17 | […] (CDR3 as printed); P4I derived by comparing it with the table's wild-type CDR3 ASSPTGGSPSPLH | 0.897
18 | […] (CDR3 as printed); P4K derived by comparing it with the table's wild-type CDR3 ASSPTGGSPSPLH | 0
19 | […] (CDR3 as printed); P4L derived by comparing it with the table's wild-type CDR3 ASSPTGGSPSPLH | 0
20 | […] (CDR3 as printed); P4M derived by comparing it with the table's wild-type CDR3 ASSPTGGSPSPLH | 4.15
21 | […] (CDR3 as printed); P4N derived by comparing it with the table's wild-type CDR3 ASSPTGGSPSPLH | 1.25

Row | Variant | enrichment
22 | […] (CDR3 as printed); P4Q derived by comparing it with the table's wild-type CDR3 ASSPTGGSPSPLH | 3.21
23 | […] (CDR3 as printed); P4R derived by comparing it with the table's wild-type CDR3 ASSPTGGSPSPLH | 0.316
24 | […] (CDR3 as printed); P4S derived by comparing it with the table's wild-type CDR3 ASSPTGGSPSPLH | 0.723
25 | […] (CDR3 as printed); P4W derived by comparing it with the table's wild-type CDR3 ASSPTGGSPSPLH | 0
26 | […] (CDR3 as printed); P4Y derived by comparing it with the table's wild-type CDR3 ASSPTGGSPSPLH | 1.03
27 | […] (CDR3 as printed); P9A derived by comparing it with the table's wild-type CDR3 ASSPTGGSPSPLH | 4.97
28 | […] (CDR3 as printed); P9C derived by comparing it with the table's wild-type CDR3 ASSPTGGSPSPLH | 0
29 | […] (CDR3 as printed); P9D derived by comparing it with the table's wild-type CDR3 ASSPTGGSPSPLH | 0
30 | […] (CDR3 as printed); P9E derived by comparing it with the table's wild-type CDR3 ASSPTGGSPSPLH | 0
31 | […] (CDR3 as printed); P9F derived by comparing it with the table's wild-type CDR3 ASSPTGGSPSPLH | 0
32 | […] (CDR3 as printed); P9G derived by comparing it with the table's wild-type CDR3 ASSPTGGSPSPLH | 0
33 | […] (CDR3 as printed); P9H derived by comparing it with the table's wild-type CDR3 ASSPTGGSPSPLH | 0
34 | […] (CDR3 as printed); P9I derived by comparing it with the table's wild-type CDR3 ASSPTGGSPSPLH | 0
35 | […] (CDR3 as printed); P9K derived by comparing it with the table's wild-type CDR3 ASSPTGGSPSPLH | 0
36 | […] (CDR3 as printed); P9L derived by comparing it with the table's wild-type CDR3 ASSPTGGSPSPLH | 1.13
37 | […] (CDR3 as printed); P9M derived by comparing it with the table's wild-type CDR3 ASSPTGGSPSPLH | 0
38 | […] (CDR3 as printed); P9N derived by comparing it with the table's wild-type CDR3 ASSPTGGSPSPLH | 0
39 | […] (CDR3 as printed); P9Q derived by comparing it with the table's wild-type CDR3 ASSPTGGSPSPLH | 0
40 | […] (CDR3 as printed); P9R derived by comparing it with the table's wild-type CDR3 ASSPTGGSPSPLH | 0
41 | […] (CDR3 as printed); P9S derived by comparing it with the table's wild-type CDR3 ASSPTGGSPSPLH | 0.568
42 | […] (CDR3 as printed); P9T derived by comparing it with the table's wild-type CDR3 ASSPTGGSPSPLH | 0.619

Row | Variant | enrichment
43 | […] (CDR3 as printed); P9V derived by comparing it with the table's wild-type CDR3 ASSPTGGSPSPLH | 3.5
44 | […] (CDR3 as printed); P9W derived by comparing it with the table's wild-type CDR3 ASSPTGGSPSPLH | 0
45 | […] (CDR3 as printed); P9Y derived by comparing it with the table's wild-type CDR3 ASSPTGGSPSPLH | 0
46 | […] (CDR3 as printed); P11A derived by comparing it with the table's wild-type CDR3 ASSPTGGSPSPLH | 7.15
47 | […] (CDR3 as printed); P11C derived by comparing it with the table's wild-type CDR3 ASSPTGGSPSPLH | 6.3
48 | […] (CDR3 as printed); P11D derived by comparing it with the table's wild-type CDR3 ASSPTGGSPSPLH | 0
49 | […] (CDR3 as printed); P11E derived by comparing it with the table's wild-type CDR3 ASSPTGGSPSPLH | 4.19
50 | […] (CDR3 as printed); P11F derived by comparing it with the table's wild-type CDR3 ASSPTGGSPSPLH | 0
51 | […] (CDR3 as printed); P11G derived by comparing it with the table's wild-type CDR3 ASSPTGGSPSPLH | 0
52 | […] (CDR3 as printed); P11H derived by comparing it with the table's wild-type CDR3 ASSPTGGSPSPLH | 0
53 | […] (CDR3 as printed); P11I derived by comparing it with the table's wild-type CDR3 ASSPTGGSPSPLH | 1.23
54 | […] (CDR3 as printed); P11K derived by comparing it with the table's wild-type CDR3 ASSPTGGSPSPLH | 8.18
55 | […] (CDR3 as printed); P11L derived by comparing it with the table's wild-type CDR3 ASSPTGGSPSPLH | 2.19
56 | […] (CDR3 as printed); P11M derived by comparing it with the table's wild-type CDR3 ASSPTGGSPSPLH | 7.79
57 | […] (CDR3 as printed); P11N derived by comparing it with the table's wild-type CDR3 ASSPTGGSPSPLH | 0
58 | […] (CDR3 as printed); P11Q derived by comparing it with the table's wild-type CDR3 ASSPTGGSPSPLH | 5.97
59 | […] (CDR3 as printed); P11R derived by comparing it with the table's wild-type CDR3 ASSPTGGSPSPLH | 9.69
60 | […] (CDR3 as printed); P11S derived by comparing it with the table's wild-type CDR3 ASSPTGGSPSPLH | 2.02
61 | […] (CDR3 as printed); P11T derived by comparing it with the table's wild-type CDR3 ASSPTGGSPSPLH | 0
62 | […] (CDR3 as printed); P11V derived by comparing it with the table's wild-type CDR3 ASSPTGGSPSPLH | 0
63 | […] (CDR3 as printed); P11W derived by comparing it with the table's wild-type CDR3 ASSPTGGSPSPLH | 0

Row | Variant | enrichment
64 | […] (CDR3 as printed); P11Y derived by comparing it with the table's wild-type CDR3 ASSPTGGSPSPLH | 1.78
65 | […] (CDR3 as printed); S2A derived by comparing it with the table's wild-type CDR3 ASSPTGGSPSPLH | 3.53
66 | […] (CDR3 as printed); S2C derived by comparing it with the table's wild-type CDR3 ASSPTGGSPSPLH | 5.16
67 | […] (CDR3 as printed); S2E derived by comparing it with the table's wild-type CDR3 ASSPTGGSPSPLH | 0
68 | […] (CDR3 as printed); S2F derived by comparing it with the table's wild-type CDR3 ASSPTGGSPSPLH | 3.1
69 | […] (CDR3 as printed); S2G derived by comparing it with the table's wild-type CDR3 ASSPTGGSPSPLH | 1.01
70 | […] (CDR3 as printed); S2H derived by comparing it with the table's wild-type CDR3 ASSPTGGSPSPLH | 0.863
71 | […] (CDR3 as printed); S2I derived by comparing it with the table's wild-type CDR3 ASSPTGGSPSPLH | 0
72 | […] (CDR3 as printed); S2K derived by comparing it with the table's wild-type CDR3 ASSPTGGSPSPLH | 0
73 | […] (CDR3 as printed); S2M derived by comparing it with the table's wild-type CDR3 ASSPTGGSPSPLH | 0
74 | […] (CDR3 as printed); S2N derived by comparing it with the table's wild-type CDR3 ASSPTGGSPSPLH | 0
75 | […] (CDR3 as printed); S2P derived by comparing it with the table's wild-type CDR3 ASSPTGGSPSPLH | 0
76 | […] (CDR3 as printed); S2Q derived by comparing it with the table's wild-type CDR3 ASSPTGGSPSPLH | 0
77 | […] (CDR3 as printed); S2R derived by comparing it with the table's wild-type CDR3 ASSPTGGSPSPLH | 0
78 | […] (CDR3 as printed); S2T derived by comparing it with the table's wild-type CDR3 ASSPTGGSPSPLH | 4.08
79 | […] (CDR3 as printed); S2V derived by comparing it with the table's wild-type CDR3 ASSPTGGSPSPLH | 1.18
80 | […] (CDR3 as printed); S2Y derived by comparing it with the table's wild-type CDR3 ASSPTGGSPSPLH | 0
81 | […] (CDR3 as printed); S3A derived by comparing it with the table's wild-type CDR3 ASSPTGGSPSPLH | 9.82
82 | […] (CDR3 as printed); S3C derived by comparing it with the table's wild-type CDR3 ASSPTGGSPSPLH | 11.2
83 | […] (CDR3 as printed); S3D derived by comparing it with the table's wild-type CDR3 ASSPTGGSPSPLH | 3.32
84 | […] (CDR3 as printed); S3E derived by comparing it with the table's wild-type CDR3 ASSPTGGSPSPLH | 0

— paper PMC13397619
